From the supplement of paper PMC10567573
± gives the standard deviation.

Assay: protein stability index of a GFP-peptide fusion (GPS, HEK-293T) (PSI 1-6); higher = more stable
[1] = treatment: DMSO, c terminus: a fixed tail appended
[2] = treatment: MLN4924 1 uM, 8 h, c terminus: a fixed tail appended
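Further: 24-mer peptide tiles fused after GFP, lentivirally expressed, FACS-sorted into six equal bins by GFP/DsRed ratio, decoded by Illumina sequencing, PSI is the read-weighted mean bin number.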

ISSIGQVQSYMEHYCNSSTDRRVL [SPACA9]
protein stability index [1]: 3.23 ± 0.33
protein stability index [2]: 3.25 ± 0.36

GSCSTVGGVGYGDSKDCILEPLSL [ZNF277]
protein stability index [1]: 3.59 ± 0.32
protein stability index [2]: 3.5 ± 0.24

GGGGVAAVVVLDQGSRHWQKLREE [DUSP5]
protein stability index [1]: 2.96 ± 0.26
protein stability index [2]: 2.65 ± 0.3

VCRTEGTPHMLLDLSDLLQVDSLR [BRF1]
protein stability index [1]: 2.31 ± 0.23
protein stability index [2]: 2.29 ± 0.3

GRRGWKKFYAVLKGTILYLQKDEY [PSD2]
protein stability index [1]: 3 ± 0.4
protein stability index [2]: 3.32 ± 0.37

TSNGWGVTDCKHTEDVGVVCSDKR [LOXL2]
protein stability index [1]: 4.57 ± 0.092
protein stability index [2]: 4.46 ± 0.41

SELQREMEALAAETNLLLAQKQRL [TEKT4]
protein stability index [1]: 4 ± 0.53
protein stability index [2]: 4.2 ± 0.13

DDDDDDAQILPSRVQGGCYRFDSS [DRICH1]
protein stability index [1]: 4.65 ± 0.095
protein stability index [2]: 4.88 ± 0.15

GVAVGDWVLSIDGENAGSLTHIEA [PDLIM7]
protein stability index [1]: 3.03 ± 0.5
protein stability index [2]: 2.96 ± 0.36

GLHYIAFRKVKQMHLNFMDEKDRI [DNAJC4]
protein stability index [1]: 2.54 ± 0.29
protein stability index [2]: 2.65 ± 0.35

QSRRTALATSPITVGDLGIVRRRS [YJU2B]
protein stability index [1]: 4.27 ± 0.16
protein stability index [2]: 4.36 ± 0.25

SNYSLPPPLPTYHVLLEGEGLGQS [TRIM29]
protein stability index [1]: 3.67 ± 0.23
protein stability index [2]: 3.68 ± 0.22

APAASEGAAAPATPTPVAAALDAC [SNAP91]
protein stability index [1]: 5.32 ± 0.23
protein stability index [2]: 5.18 ± 0.31

RGPLNSDRSDYFAAWGARVFSFGK [TRIM43]
protein stability index [1]: 2.79 ± 0.22
protein stability index [2]: 2.76 ± 0.22

FLTHFILMNDVIDTSGFPDLSDNR [FBXO33]
protein stability index [1]: 2.41 ± 0.47
protein stability index [2]: 2.27 ± 0.43

TFTEHPMKYTSEKFLEICKLSGFM [TPRG1]
protein stability index [1]: 2.35 ± 0.48
protein stability index [2]: 2.22 ± 0.5

GGGGGGGGTSSNNSEEEEDDDDEE [ANKRD17]
protein stability index [1]: 5.68 ± 0.21
protein stability index [2]: 5.55 ± 0.34

CLTCGKSFRQGMHLTRHQRTHTGE [ZNF263]
protein stability index [1]: 4.03 ± 0.23
protein stability index [2]: 3.98 ± 0.46

HGDPIPKVEFTEEEIKTWGTVFQE [TPH1]
protein stability index [1]: 4.87 ± 0.2
protein stability index [2]: 4.86 ± 0.16

FGKDFRKGLLKKGACYGDDACFVA [PPTC7]
protein stability index [1]: 2.24 ± 0.31
protein stability index [2]: 2.53 ± 0.35

DTHNTNNLDTEELCEYFSQHLGEY [NECAB1]
protein stability index [1]: 4.41 ± 0.36
protein stability index [2]: 4.17 ± 0.33

QDDSKPTQRQFTILNFNDLMSSAV [AASDHPPT]
protein stability index [1]: 2.86 ± 0.31
protein stability index [2]: 2.97 ± 0.28

FEDEVKRLGWQQQAELQELEERLQ [MTUS2]
protein stability index [1]: 4.17 ± 0.4
protein stability index [2]: 4.28 ± 0.54

YAKKESDLNGAQIKLREYEAALNS [LMNB1]
protein stability index [1]: 4.07 ± 0.2
protein stability index [2]: 4.07 ± 0.3

SARCVVSFNILVEDRVKLFGIEIE [PCDHGA10]
protein stability index [1]: 2.12 ± 0.68
protein stability index [2]: 1.95 ± 0.27

GLGLPMSRSQNTDMVQKSVSKTLP [CLINT1]
protein stability index [1]: 4.33 ± 0.23
protein stability index [2]: 4.44 ± 0.099

EKLAPSEITEELPSSQLMPVKKQL [ZNF396]
protein stability index [1]: 5.17 ± 0.15
protein stability index [2]: 5.14 ± 0.21

LASISTYGFRGEALASISHVAHVT [MLH1]
protein stability index [1]: 2.19 ± 0.48
protein stability index [2]: 2.19 ± 0.23

FDEKIVPILKRKLPGSDVSGRLMG [FBXO28]
protein stability index [1]: 2.75 ± 0.48
protein stability index [2]: 3.48 ± 0.47

PRTNEWTYVAKMSEPHYGHAGTVY [KLHL13]
protein stability index [1]: 2.44 ± 0.21
protein stability index [2]: 2.61 ± 0.24

RAEGTDIPTVKPLKPRPEPPKKPS [ZC2HC1A]
protein stability index [1]: 5.38 ± 0.18
protein stability index [2]: 5.4 ± 0.27

RDAIEALCRRLNTLNKCAVMKLEI [DLC1]
protein stability index [1]: 2.13 ± 0.49
protein stability index [2]: 2.54 ± 0.17

AKGDNVYEFHLEFLDLVKPEPVYK [HACD3]
protein stability index [1]: 2.41 ± 0.09
protein stability index [2]: 2.54 ± 0.49

SGGELFDFLAEKESLTEDEATQFL [DAPK3]
protein stability index [1]: 4.84 ± 0.19
protein stability index [2]: 4.96 ± 0.47

NDPSQSEVMGEPHLMVEYKLGLL [POMP]
protein stability index (treatment: DMSO, c terminus: native): 4.16 ± 0.22
protein stability index (treatment: MLN4924 1 uM, 8 h, c terminus: native): 4.36 ± 0.21

LHDARLLRTIPSPYPASKADIPSV [DCAF4]
protein stability index [1]: 3.36 ± 0.21
protein stability index [2]: 3.43 ± 0.11

RAYDLLRAASENSQDALRVVSTSG [IKZF1]
protein stability index [1]: 2.62 ± 0.37
protein stability index [2]: 2.84 ± 0.31

LSRLQRVKFCLLGALLAPIRVLLA [LPCAT4]
protein stability index [1]: 3.67 ± 0.42
protein stability index [2]: 3.58 ± 0.14

EKEKKNRKGKDKENGSVSSSETPP [EIF5]
protein stability index [1]: 5.58 ± 0.24
protein stability index [2]: 5.65 ± 0.13

RSHSREPRAERKCPRIAPADSGRY [ELOA2]
protein stability index [1]: 4.093 ± 0.032
protein stability index [2]: 4.25 ± 0.47

DSARADDARQLFVLAGAAEEGFMT [GNAI1]
protein stability index [1]: 4.21 ± 0.22
protein stability index [2]: 4.43 ± 0.077

TPLLNGSSQDRMFETMAIEIEQLL [GOSR1]
protein stability index [1]: 3.06 ± 0.27
protein stability index [2]: 3.28 ± 0.23

WEASSLGLVTAALHMVIVAAFTWA [KMT2E]
protein stability index [1]: 3.44 ± 0.31
protein stability index [2]: 3.16 ± 0.74

ELFVREPTGRLPALVRWWNGIGAV [MYORG]
protein stability index [1]: 2.26 ± 0.38
protein stability index [2]: 2.4 ± 0.41

KELGTLIPKSSDPEMRWNKGTILK [TFE3]
protein stability index [1]: 4.06 ± 0.28
protein stability index [2]: 4.01 ± 0.14
